# Experimental data as given in patent publication US20220403048A1, “BINDING MOLECULES TO ARGINASE II [ARG2]” (Cancer Research Technology Limited, priority 2019, published 2022).
# What was measured:
# [1] = biological target: recombinant human trimeric ARG2 enzyme (construct not given) (human) (UniProt P78540); assay: cell-based or functional assay
# [2] = biological target: biotinylated recombinant human trimeric ARG2 enzyme (Avi-huARG2-His10) (human) (UniProt P78540); assay: HTRF epitope competition, scFv titrated, competitor C0020187 IgG, on biotinylated human trimeric ARG2
# Chain of biotinylated recombinant human trimeric ARG2 enzyme (Avi-huARG2-His10) (human) (P78540 other isoform, or with tags, fused parts or gaps limits assumed, form in doubt): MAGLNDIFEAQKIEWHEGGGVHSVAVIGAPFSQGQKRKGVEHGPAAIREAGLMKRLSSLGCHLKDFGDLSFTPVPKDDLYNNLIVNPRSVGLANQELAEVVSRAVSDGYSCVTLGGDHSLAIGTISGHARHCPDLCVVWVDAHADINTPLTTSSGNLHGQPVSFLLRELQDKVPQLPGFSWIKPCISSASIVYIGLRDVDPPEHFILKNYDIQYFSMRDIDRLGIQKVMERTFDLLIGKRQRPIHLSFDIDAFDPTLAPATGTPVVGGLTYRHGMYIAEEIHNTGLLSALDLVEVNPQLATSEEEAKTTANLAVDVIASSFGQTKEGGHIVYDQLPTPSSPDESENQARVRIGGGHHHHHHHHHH
# [3] = biological target: recombinant human trimeric ARG2 enzyme (construct not given) (human) (UniProt P78540); assay: size-exclusion chromatography, 8 µM each
# Target sequence in this assay (P78540 23-354, form in doubt): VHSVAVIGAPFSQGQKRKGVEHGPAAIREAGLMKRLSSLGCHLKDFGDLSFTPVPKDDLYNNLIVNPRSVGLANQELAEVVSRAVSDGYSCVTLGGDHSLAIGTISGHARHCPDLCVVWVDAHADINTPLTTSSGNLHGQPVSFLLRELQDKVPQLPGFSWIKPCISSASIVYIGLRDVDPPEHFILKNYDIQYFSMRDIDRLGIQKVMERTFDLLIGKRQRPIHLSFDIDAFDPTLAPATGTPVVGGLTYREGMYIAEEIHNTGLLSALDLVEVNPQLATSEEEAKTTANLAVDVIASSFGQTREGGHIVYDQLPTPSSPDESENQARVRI
# [4] = biological target: recombinant human trimeric ARG2 enzyme (construct not given) (human) (UniProt P78540); assay: dynamic light scattering, 8 µM each
# Target sequence in this assay (P78540 23-354, form in doubt): as above
binder,measurement,setting,value
"C0020065 recombinant human IgG1 (antibody, V domains shown) VH: GVNLRESGGGVVQPGRSLRLSCAASGFTFSSYAMHWVRQAPGKGLEWVAVISYDGSNKYYVDSVKGRFTISRDNSKNTLYLQMNSLRAEDTAVYYCARDSSQLWFDYWGRGTLVTVSS VL: QSVVTQPPSVSGAPGQRVTISCTGSSSNIGTGYDVHWYQQLPGTAPKLLIYGNSNRPSGVPDRFSGSKSGTSASLAITGLQAEDEADYYCQSYDSSLSGSVVFGGGTQLTVL","EC50, In Presence of rhARG2 (T cell proliferation)",[1],> 2000 nM
same,"Maximum % Proliferation, In Presence of rhARG2",[1],49%
"C0021142 scFv (scFv, part only; not given: linker, domain order, tag, V domains shown, not shown: another chain or arm of the molecule; small tags and cut ends) VH: EVQLLESGGGLVQPGGSLRLSCAASGFTFSSYAMSWVRQAPGKGLEWVSAHTHSPGSTYYADSVKGRFTISRDNSKNTLYLQMNSLRAEDTAVYYCARLRADLGLYMDLWGRGTLVTVSS VL: QSVLTQPPSVSAAPGQKVTISCSGSSSNIGNHYVSWYQQLPGTAPKLLIYDNSERPSGVPDRFSGSKSGTSATLGITGLQTGDEADYYCGTWDSSLSALVFGGGTKLTVL",Trimeric human ARG2 EIA IC50,[1],97.6 nM
same,IC50,[2],57.8 nM
"C0021139 Fab (Fab, V domains shown) VH: EVQLLESGGGLVQPGGSLRLSCAASGFTFQYDYQVWVRQAPGKGLEWVSAISGSGGSTYYADSVKGRFTISRDNSKNTLYLQMNSLRAEDTAVYYCARLRADLGLYMDLWGRGTLVTVSS VL: QSVLTQPPSVSAAPGQKVTISCSGSSSNIGNHYVSWYQQLPGTAPKLLIYDNSERTSGIPDRFSGSKSGTSATLGITGLQTGDEADYYCGTWDELTSNLVFGGGTKLTVL",SEC peak of the 1:1 molar ARG2:Fab mixture,[3],275 kDa
same,increase in average hydrodynamic radius (Rh) against ARG2-C0020187 Fab complexes,[4],1.5 nm
